The results in this text go back to US20250295799A1 (Zymeworks, published 2025).

For orientation: EC50 (read off the curve) means the concentration giving half of the maximal effect.

The target of assay [1] is T1, recombinant human GPC3 (ACROBiosystems) (human, UniProt P51654 25-559).
T1 construct: bought antigen of the SPR assays, SEC purified; also called huGPC3; hGPC3
The experiment in a line: SPR. A general note: In SPR one partner is held on a chip, and binding of the other changes the refractive index at the surface.

Assay [2] has as its target T2, human GPC3 on cells (human, UniProt P51654 25-554).
T2 construct: GPI-anchored protein on transfected CHO-S cells, on human tumor cell lines or on HEK293T cells; the cell is named under assay; also called human GPC3 on CHO-S transfected cells; HuGPC3-CHO
The experiment in a line: flow cytometry, JHH-7 cells; apparent Kd. A general note: A flow cytometer gives signals particle by particle.
Procedure: (§1) Briefly, cells were seeded at 50,000 cells/well in V-bottom 96-well plates and treated with antibody for 24 hours at 4° C. to prevent internalization. […] Following incubation and washing, fluorescence was detected by flow cytometry on a BD LSRFortessa™ Cell Analyzer (BD Biosciences, Franklin Lake, NJ) with 1,000 minimum events collected per well. AF647/APC-A GeoMean (fluorescence signal geometric mean, proportional to anti-Human AF647 binding) in live cell population was plotted against antibody concentration using GraphPad Prism Version 9 (GraphPad Software, San Diego, CA). The Bmax, Curve Hill Slope (h) and Kd values were derived from the “Specific binding with Hill slope” nonlinear regression curve fit in GraphPad Prism Version 9.

Assay [3] deals with KLH (Sigma-Aldrich, H8283). Nature of the assay: NS-ELISA, plate coated with KLH, antibody at 100 nM.
Procedure: 50 μL each of insulin, KLH, dsDNA and ssDNA were added to a 96 well plate, followed by the incubation at 37° C. for 2 h. The coating materials were removed, and the plate was blocked with 200 μL of Gibco™ PBS pH7.4, 0.1% Tween®20, and incubated for 1 h at room temperature with shaking at 200 rpm. The plate was washed 3 times with Gibco™ PBS pH7.4, 0.1% Tween 20. 50 μL of each mAb at 100 nM (15 mg/mL) in Gibco™ PBS pH 7.4, 0.1% Tween®20 was added in duplicate to the wells and incubated for 1 h at room temperature with shaking at 200 rpm. Plates were washed three times with Gibco™ PBS pH7.4, 0.1% Tween 20, and 50 μL of 50 ng/mL anti-human IgG HRP (Thermofisher Scientific©, H₁₀₃₀₇) was added to each well. Plates were incubated for 1 h at room temperature, with shaking at 200 rpm. The plate was washed three times with Gibco™ PBS pH7.4, 0.1% Tween 20, and 100 μL of TMB substrate (Cell Signaling Technology©, 7004P6) added to each well. […] Binding scores were calculated as the ratio of the ELISA signal of the antibody to the signal of a well containing buffer instead of the primary antibody. The cutoffs considered for each binding molecule (ssDNA. KLH, Insulin, dsDNA and Heparin) were internally calculated.
For assay [4], the target named is T2, human GPC3 on cells. Nature of the assay: flow cytometry, HepG2 cells.
Procedure: as §1
The target in assay [5] is T1, recombinant human GPC3 (ACROBiosystems). Nature of the assay: SPR; Kd on huGPC3 over Kd on cynoGPC3.
Procedure: (§2) Antigens: recombinant human and cynomolgus GPC3 was purchased from ACROBiosystems (Newark, DE) and SEC purified on a Superdex 200 10/300 GL column (Cytiva) in PBST running buffer at 0.8 mL/min.
(§3) Screening of the antibodies for binding to GPC3 antigen was conducted via anti-Fc capture of antibodies, followed by the injection of five concentrations of GPC3. The anti-Fc surface was prepared on a CM5 Series S sensor chip by standard amine coupling methods as described by the manufacturer (Cytiva Life Sciences, Mississauga, ON, Canada). […] Approximately 500-600 RUs of each antibody (1-3 μg/mL) were captured on the goat anti-human IgG surface by injecting at 10 μL/min for 60s. Using single-cycle kinetics, five concentrations of a two-fold dilution series of human or cynomolgus GPC3 starting at 40 nM (or 20 nM) with a blank buffer control were injected at 40 μL/min for 180s of contact time, followed by 180 s (or 300 s) dissociation phase, resulting in sensorgrams with a buffer blank reference. The anti-Fc surface was regenerated to prepare for the next injection cycle by one pulse of 10 mM glycine/HCl pH 1.5 for 180 s at 40 μL/min. Blank-subtracted sensorgrams were analyzed using Biacore™ T200 Evaluation Software v3.0. The blank-subtracted sensorgrams were then fit to the 1:1 Langmuir binding model.
The target of assay [6] is T2, human GPC3 on cells. The experiment in a line: flow cytometry, JHH-7 cells.
Procedure: as §1
Assay [7] has as its target T2, human GPC3 on cells. Nature of the assay: cell-based or functional assay.
For assay [8], the target named is T3, cynomolgus monkey GPC3 on CHO-S transfected cells (cynomolgus monkey, UniProt A5A6P7 25-554 (Pan troglodytes entry)).
T3 construct: transient expression from a pTT5-based plasmid; also called CHO-S Cyno GPC3; CynoGPC3-CHO
The experiment in a line: flow cytometry, CHO-S cells transfected with cynomolgus monkey GPC3; apparent Kd.
Procedure: (§4) Briefly, CHO—S cells were transiently transfected for −24 hours with a pTT5-based expression plasmid encoding human GPC3 or cynomolgus monkey GPC3, 0.5 μg DNA per 1 million cells, using the Neon™ Transfection System (Thermo Fisher Scientific Corp., Waltham, MA), to transiently express human or cynomolgus monkey GPC3. Following transfection, cells were seeded at 50,000 cells/well in V-bottom 96-well plates and treated with antibody for 24 hours at 4° C. to prevent internalization. […] Following incubation and washing, fluorescence was detected by flow cytometry on a BD LSRFortessa™ Cell Analyzer (BD Biosciences, Franklin Lake, NJ) with 1,000 minimum events collected per well. AF647/APC-A GeoMean (fluorescence signal geometric mean, proportional to anti-Human AF647 binding) in live cell population was plotted against antibody concentration using GraphPad Prism Version 9 (GraphPad Software, San Diego, CA). The Bmax and Kd values were derived from the “Specific binding with Hill slope” nonlinear regression curve fit in GraphPad Prism Version 9.

In assay [9] the target is T2, human GPC3 on cells. The experiment in a line: flow cytometry on HepG2 cells (GPC3-high), 24 h at 4 C, anti-human IgG Fc AF647.
Procedure: as §1
Assay [10] concerns the target T2, human GPC3 on cells. Nature of the assay: flow cytometry, HepG2 cells; apparent Kd.
Procedure: as §1
Assay [11] addresses T2, human GPC3 on cells. Nature of the assay: flow cytometry on JHH-7 cells (GPC3-high), 24 h at 4 C, anti-human IgG Fc AF647.
Procedure: as §1
Assay [12] has as its target T4, recombinant cynomolgus GPC3 (ACROBiosystems) (cynomolgus monkey, UniProt A5A6P7 25-559 (Pan troglodytes entry), limits assumed).
T4 construct: bought antigen of the SPR assays; also called cynoGPC3
The experiment in a line: SPR, antibody captured on anti-Fc, GPC3 injected, 1:1 fit.
Procedure: as §2, §3

The target in assay [13] is T1, recombinant human GPC3 (ACROBiosystems). The description is as above.
Procedure: as §2, §3
Assay [14] deals with T2, human GPC3 on cells. The experiment in a line: flow cytometry, CHO-S cells transfected with human GPC3; apparent Kd.
Procedure: as §4
In another assay the target is T5, FcgR1A (human, UniProt P12314 16-374).
T5 construct: whole, on cells
T5 sequence (P12314 16-374): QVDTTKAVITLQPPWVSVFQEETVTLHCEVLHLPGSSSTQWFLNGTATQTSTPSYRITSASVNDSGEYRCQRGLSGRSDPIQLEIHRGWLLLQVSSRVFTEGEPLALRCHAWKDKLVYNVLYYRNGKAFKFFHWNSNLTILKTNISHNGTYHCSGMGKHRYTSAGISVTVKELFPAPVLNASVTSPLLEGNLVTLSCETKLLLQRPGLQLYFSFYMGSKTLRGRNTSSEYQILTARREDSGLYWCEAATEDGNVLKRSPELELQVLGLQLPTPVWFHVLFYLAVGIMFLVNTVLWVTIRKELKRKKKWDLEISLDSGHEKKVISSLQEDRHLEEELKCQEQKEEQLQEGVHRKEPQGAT
The experiment in a line: Membrane Proteome Array: high-throughput flow cytometry on unfixed HEK293T cells, each well expressing one human membrane protein; antibody at 1.25 ug/mL; the text ascribes this to the Fc portion.

For assay [15], the target named is T2, human GPC3 on cells. The experiment in a line: flow cytometry on JHH-7 cells (GPC3-high), 24 h at 4 C, anti-human IgG Fc AF647. The source holds these as a separate data set.
Procedure: (§5) Cell lines investigated included GPC3-hi HepG2 and JHH-7 cells, GPC3-mid JHH-5 cells, as well as GPC3-negative SNU-601 cells.
as §1
Assay [16] deals with T2, human GPC3 on cells. The experiment in a line: flow cytometry on CHO-S cells transiently transfected with human GPC3, 24 h at 4 C, anti-human IgG Fc AF647.
Procedure: as §4
The target of assay [17] is T2, human GPC3 on cells. Nature of the assay: flow cytometry on HepG2 cells (GPC3-high), 24 h at 4 C, anti-human IgG Fc AF647. This is another data set of the same source.
Procedure: as §5, §1
The target of assay [18] is T2, human GPC3 on cells. Nature of the assay: flow cytometry on JHH-5 cells (GPC3-mid), 24 h at 4 C, anti-human IgG Fc AF647.
Procedure: as §5, §1
The target in assay [19] is T2, human GPC3 on cells. Nature of the assay: flow cytometry, JHH-5 cells.
Assay [20] concerns the target T2, human GPC3 on cells. The experiment in a line: flow cytometry, JHH-7 cells. The source holds these as a separate data set.

Positions count from the first letter of the chain named. A value given as a limit tells only on which side of the number the result lay.

Procedure for FcgR1A: Briefly, the study consisted of three phases: phase (1) determination of assay screening conditions, phase (2) membrane proteome array (library) screen and phase (3) protein target validation. […] In phase (3), each protein target hit from the screen stage (potential off-target interactions) was assessed in titration experiment using flow cytometry.

B1: v37575 (codrituzumab) (antibody, human IgG1, kappa, V domains shown)
VH: QVQLVQSGAEVKKPGASVKVSCKASGYTFTDYEMHWVRQAPGQGLEWMGALDPKTGDTAYSQKFKGRVTLTADKSTSTAYMELSSLTSEDTAVYYCTRFYSYTYWGQGTLVTVSS
VL: DVVMTQSPLSLPVTPGEPASISCRSSQSLVHSNRNTYLHWYLQKPGQSPQLLIYKVSNRFSGVPDRFSGSGSGTDFTLKISRVEAEDVGVYYCSQNTHVPPTFGQGTKLEIKR
notes: also called GC33; RG-7686
Turning to B1, the “fold higher affinity than M3-H18L6” value in assay [1] is about 10 fold. The Kd in the assay with human GPC3 on cells [2] amounted to 0.26 nM; in assay [8], 0.98 nM; with human GPC3 on cells [10] it was 1.2 nM; in assay [12] it was 0.91 nM; in assay [13], 0.91 nM; with human GPC3 on cells [14] it was 1.23 nM. Besides, the NS-ELISA binding score in assay [3] is 1.11 ratio to buffer well. In addition, the Bmax was 42300 in the assay with human GPC3 on cells [4] and 9000 with human GPC3 on cells [6]. Moreover, in [5], the “Fold difference (hu/cyno)” value came to 1 fold. For the same molecule, the “internalized fluorescence, fold increase over palivizumab, Hep G2, 5 hours, 10 nM” value with human GPC3 on cells [7] stood at 14.4 fold. Moreover, the “internalized fluorescence, fold increase over palivizumab, Hep G2, 24 hours, 10 nM” value with human GPC3 on cells [7] worked out at 57.2 fold. The “internalized fluorescence, fold increase over palivizumab, JHH-7, 5 hours, 10 nM” value in the assay with human GPC3 on cells [7] is 8.5 fold. The “internalized fluorescence, fold increase over palivizumab, JHH-7, 24 hours, 10 nM” value with human GPC3 on cells [7] turned out to be 46.7 fold. Further, the entries for the “EC50 (read off the curve)” value with human GPC3 on cells [9] and with human GPC3 on cells [11] were about 1 nM and about 0.3 nM, respectively.

B2: v38592 (M3-H18L6 with HC C-terminal lysine) (antibody, human IgG1, kappa)
heavy: not shown
light: EIVLTQSPATLSLSPGERATISCRSSQSLRHSNGNTYLQWYQQKPGQAPRLLIYKVSNRFSGVPARFSGSGSGTDFTLTISSLEPEDFAVYFCYQSKHVPYTFGGGTKVEIKRTVAAPSVFIFPPSDEQLKSGTASVVCLLNNFYPREAKVQWKVDNALQSGNSQESVTEQDSKDSTYSLSSTLTLSKADYEKHKVYACEVTHQGLSSPVTKSFNRGEC
notes: identical to v37574 but the cDNA of the heavy chains encodes a C-terminal lysine; also called M3-H18L6 (WT) mAb; wild-type M3-H18L6
Regarding B2, the binding result with FcgR1A was “binds”.

B3: v38592-MC-GGFG-AM-Compound 139, DAR 4 (antibody, human IgG1, kappa)
heavy: not shown
light: B2 light
modifications: MC-GGFG-AM-Compound 139 drug-linker on reduced cysteines, sites not stated; MC-GGFG-AM-Compound 139 drug-linker on reduced cysteines, sites not stated; DAR 4 for the whole antibody
notes: antibody-drug conjugate
As to B3, the concentration giving a half-maximal response (EC50 (read off the curve)) in the assay with human GPC3 on cells [15] was about 0.9 nM; with human GPC3 on cells [16] it was about 0.3 nM; with human GPC3 on cells [17], about 9 nM; with human GPC3 on cells [18] it was about 0.4 nM.

B4: v36180 (M3-H1L1) (antibody, human IgG1, kappa, V domains shown)
VH: EVQLVQSGAEVKKPGSSVKVSCKASGYTFTDYEMHWVRQAPGQGLEWIGAIDPETGDTAYNQKFKGRATLTADKSTSTAYMELSSLRSEDTAVYYCTRYFSFAYWGQGTLVTVSS
VL: DVQMTQSPSSVSASVGDRVTITCRSSQSLRHSNGNTYLQWYQQKPGKAPKLLIYKVSNRFSGVPSRFSGSGSGTDFTLTISSLQPEDFATYFCYQSKHVPYTFGQGTKVEIKR
notes: humanized full-size IgG1 (IGHG1*01)/kappa antibody; heavy chain ends at G446 (EU); also called M3-HIL1
Regarding B4, the Kd with human GPC3 on cells [2] was 0.25 nM; with human GPC3 on cells [10], 0.91 nM; in assay [12] it was 9.67 nM; in assay [13], 10.5 nM. Further, the NS-ELISA binding score in [3] is 5.45 ratio to buffer well. Moreover, the values for the Bmax with human GPC3 on cells [4] and with human GPC3 on cells [6] were 40000 and 9340, respectively. The “Fold difference (hu/cyno)” value in assay [5] was determined as 1.1 fold. For the same molecule, the “internalized fluorescence, fold increase over palivizumab, Hep G2, 5 hours, 10 nM” value with human GPC3 on cells [7] amounted to 17 fold. Besides, in the assay with human GPC3 on cells [7], the “internalized fluorescence, fold increase over palivizumab, Hep G2, 24 hours, 10 nM” value was 66.2 fold. Also, the “internalized fluorescence, fold increase over palivizumab, JHH-7, 5 hours, 10 nM” value in the assay with human GPC3 on cells [7] was 8.6 fold. The “internalized fluorescence, fold increase over palivizumab, JHH-7, 24 hours, 10 nM” value with human GPC3 on cells [7] is 46.4 fold. The “EC50 (read off the curve)” value with human GPC3 on cells [9] is about 0.9 nM; with human GPC3 on cells [11], about 0.3 nM.

B5: v40213 (H18L6_LC_N33E mAb) (antibody, human IgG1, kappa, V domains shown)
VH: B4 VH with E1Q, R38K, Q43H, R67K, K74T
VL: EIVLTQSPATLSLSPGERATISCRSSQSLRHSEGNTYLQWYQQKPGQAPRLLIYKVSNRFSGVPARFSGSGSGTDFTLTISSLEPEDFAVYFCYQSKHVPYTFGGGTKVEIKR
notes: as for v40203
Turning to B5, in the assay with human GPC3 on cells [19], the “fold increase in Kd from wild-type” value was about 29 fold.

B6: v40215 (H18L6_LC_N33V mAb) (antibody, human IgG1, kappa, V domains shown)
VH: B4 VH with E1Q, R38K, Q43H, R67K, K74T
VL: B5 VL with E33V
notes: as for v40203
As to B6, in the assay with human GPC3 on cells [20], the “fold increase in Kd from wild-type” value was over 2 fold.
